How the values were obtained:
[1] = target: Ino80-K929R-FLAG (S. cerevisiae, UniProt P53115 1-1489, K929R); assay: co-IP
[2] = target: Ino80-FLAG (endogenously expressed FLAG-tagged Ino80) (S. cerevisiae (endogenous in yeast …, UniProt P53115 1-1489)); assay: co-IP
Ino80-FLAG (endogenously expressed FLAG-tagged Ino80) (S. cerevisiae, sequence (P53115 whole entry): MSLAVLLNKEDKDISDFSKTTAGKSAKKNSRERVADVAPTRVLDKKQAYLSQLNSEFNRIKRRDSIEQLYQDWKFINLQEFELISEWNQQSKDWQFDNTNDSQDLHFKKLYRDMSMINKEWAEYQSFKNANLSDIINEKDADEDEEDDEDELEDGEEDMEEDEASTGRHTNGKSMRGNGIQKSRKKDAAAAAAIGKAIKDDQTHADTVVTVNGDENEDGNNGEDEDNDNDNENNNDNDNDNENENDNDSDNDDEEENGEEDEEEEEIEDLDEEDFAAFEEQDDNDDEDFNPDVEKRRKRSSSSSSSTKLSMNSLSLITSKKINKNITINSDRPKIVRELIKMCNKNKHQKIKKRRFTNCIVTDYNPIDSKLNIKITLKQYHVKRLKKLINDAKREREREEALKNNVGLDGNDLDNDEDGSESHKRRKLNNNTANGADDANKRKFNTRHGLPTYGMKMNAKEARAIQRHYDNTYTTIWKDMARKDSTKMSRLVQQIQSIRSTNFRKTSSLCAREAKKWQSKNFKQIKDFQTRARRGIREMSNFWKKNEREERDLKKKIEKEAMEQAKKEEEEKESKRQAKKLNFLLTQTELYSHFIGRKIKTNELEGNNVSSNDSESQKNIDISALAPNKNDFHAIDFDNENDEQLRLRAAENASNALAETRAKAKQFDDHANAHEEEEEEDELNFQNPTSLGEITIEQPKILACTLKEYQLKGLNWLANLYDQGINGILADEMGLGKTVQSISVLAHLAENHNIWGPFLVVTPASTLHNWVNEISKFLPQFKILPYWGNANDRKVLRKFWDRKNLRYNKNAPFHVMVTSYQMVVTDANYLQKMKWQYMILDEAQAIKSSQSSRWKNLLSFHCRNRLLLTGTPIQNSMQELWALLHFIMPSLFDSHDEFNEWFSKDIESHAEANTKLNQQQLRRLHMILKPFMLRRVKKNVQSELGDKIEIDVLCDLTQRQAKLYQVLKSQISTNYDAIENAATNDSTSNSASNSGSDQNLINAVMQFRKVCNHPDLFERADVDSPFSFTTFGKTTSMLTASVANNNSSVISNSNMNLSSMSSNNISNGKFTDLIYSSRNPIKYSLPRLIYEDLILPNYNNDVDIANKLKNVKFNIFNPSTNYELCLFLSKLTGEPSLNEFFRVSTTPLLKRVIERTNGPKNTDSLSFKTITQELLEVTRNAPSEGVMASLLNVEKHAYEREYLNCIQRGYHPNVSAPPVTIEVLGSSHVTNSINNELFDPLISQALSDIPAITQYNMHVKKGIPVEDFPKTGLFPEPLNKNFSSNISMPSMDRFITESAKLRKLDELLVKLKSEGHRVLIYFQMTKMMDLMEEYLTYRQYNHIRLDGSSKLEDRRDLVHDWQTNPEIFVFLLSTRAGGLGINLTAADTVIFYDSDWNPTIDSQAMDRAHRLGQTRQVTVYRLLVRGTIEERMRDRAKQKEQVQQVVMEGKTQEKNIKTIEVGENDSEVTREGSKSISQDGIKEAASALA

Ino80-K929R-FLAG, sequence (P53115 whole entry K929R): as the sequence (P53115 whole entry) above, with K929R counted along it

B1: Atg11-CBP (tandem affinity-purified Atg11) (natural protein)
chain: MADADEYSTAPTQQEITPLQTTATIINAISGECITTNVDFFVSLDKFKQFIARKWKIPPDQLLILLPYGNKLKPSMFKELLINRSFTLNDFYVYDRRLFSLVSKPTPTNLLTSKDSNPMNSPNSNDLTETLEYLIKNSHISQYQGSDTIMIKPMPSPLEDADVDLSRLNYHSVTSLLTTNLGWLSALEIDVHYFKSLIPDIIAHIKRIFDGLTVCSQYLKLYCFDVESLYNSNVQFLNQLVDNGMTSKWEKCFNDTLSKLTALEGDSLQKFINIESLLENEKSVKILNHSINGKLNKIKREIDENASFRDIITVNIDRLRQMFTPNESKFELEDQMAESFEVLVSEMRTRSRNVLDKEEEEFNSQEFLKSMNVMLEKDKKESVKTLFTISQALYSQIGELIDLKKSLQKHAVAILGNIAFTQMEILGIKRLLLNECNKDLELYKKYEVEFAQVEDLPLIYGLYLIEKYRRLSWFQQILSFISNFNQDLELFKQNELRTRNKWVKNFGSIATVFCEDLLSSSDFKRLNEYHSHTSPPNEDEEDENENSIANYRQDLVKVSQAIDNYMTQIKETDVSEPIIDLLSKTLFETKRFHIIYSNFKNNNNNSSNGNSISPEGSIALKSDDVVKGYKTRIKKLESLLHEFQYSDIGHWPQGVLNTHLKPFRGSATSINKKKFLGASVLLEPANISEVNIDSVSQANNHQIQELESNVDDLLHQLQLLKEENNRKSMQISEMGKKISDLEVEKTAYRETLTNLNQELARLTNEEQSHRTEIFTLNASFKKQLNDIISQDNEKIEKLTGDYDDVSKSRERLQMDLDESNKKHEQEVNLLKADIERLGKQIVTSEKSYAETNSSSMEKGEKFETIPLAEDPGRENQISAYTQTLQDRIFDIISTNIFILENIGLLLTFDNNNNIQIRRVKGLKKGTAQSNILDESTQMLDAHDNSLIKSPVFQKLKDEYELIKSVANGSEKDTQQSIFLGNITQLYDNKLYEVAVIRRFKDIETLAKKLTKENKIKRTLLERFQREKVTLRNFQIGDLALFLPTRENVNSVGSMSSSTSSLSSSFSSVDLSTPPPLDAMSIQSSPSVIHSNVINQASISGRDKNKLMRPWAAFTAFEESTRYFLKDEKGLTKGKEWFVGRIVTLEHFVADSPSNNPFRLPKGSVWFQVTAVVVSYQGV
binding result [1]: binds | binding result [2]: binds

From article PMC9995077 (Science Advances, 2023)
